Measured values reported in patent US20210145976A1 (ARO BIOTHERAPEUTICS, published 2021).
Substitutions are numbered along the chain they refer to.

B1: SEQ ID NO 167 (designed binder)
chain: MLPAPKNLVVSRVTEDSARLSWTAPDAAFDSFFIGYLEPQPPGEAIVLTVPGSERSYDLTGLKPGTEYNVTIQGVKGGTPSEPLSAIFTT
notes: FN3 domain
B2: SEQ ID NO 200 (designed binder)
chain: MLPAPKNLVVSRVTEDSARLSWTAPDAAFDSFYIEYYEWMHTGEAIVLTVPGSERSYDLTGLKPGTEYSVYIYGVKGGYPSSPLSAIFTT
notes: FN3 domain
B3: SEQ ID NO 180 (designed binder)
chain: MLPAPKNLVVSRVTEDSARLSWTAPDAAFDSFEISYYEMRGYGEAIVLTVPGSERSYDLTGLKPGTEYSVLIHGVEGGDYSSPLSAISTT
notes: FN3 domain
B4: SEQ ID NO 215 (designed binder)
chain: B2 chain with Y33L, E35P, Y37A, W39T, M40S, H41P, Y71L, Y73H
notes: FN3 domain
B5: SEQ ID NO 228 (designed binder)
chain: MLPAPKNLVVSRVTEDSARLSWTAPDAAFDSFEIYYVEWSEAGEAIVLTVPGSERSYDLTGLKPGTEYRVEIRGVKGGSWSSPLSAIFTT
notes: FN3 domain
B6: SEQ ID NO 175 (designed binder)
chain: B1 chain with N69S, T71V, T79F, E82D
notes: FN3 domain
B7: SEQ ID NO 223 (designed binder)
chain: MLPAPKNLVVSRVTEDSARLSWTAPDAAFDSFTIWYAEALGDGEAIVLTVPGSERSYDLTGLKPGTEYFVDIPGVKGGTRSSPLSAISTT
notes: FN3 domain
B8: SEQ ID NO 219 (designed binder)
chain: B2 chain with Y33H, E35D, Y37L, W39L, M40T, H41Y, T42A, S69Y, Y71T
notes: FN3 domain
B9: SEQ ID NO 169 (designed binder)
chain: B1 chain with T79F, E82V
notes: FN3 domain
B10: SEQ ID NO 255 (designed binder)
chain: B2 chain with Y33D, W39L, M40I, H41G, T42R, S69W, Y71G, Y79W, P80L, S82R
notes: FN3 domain
B11: SEQ ID NO 245 (designed binder)
chain: MLPAPKNLVVSRITEDSARLSWTAPDAAFDSFGIAYNEGDHYGEAIVLTVPGSERSYDLTGLKPGTEYSVWIEGVKGGNLSYPLSAIFTT
notes: FN3 domain
B12: SEQ ID NO 179 (designed binder)
chain: B7 chain with T33Y, W35A, A39P, L40R, G41P, F69P, D71P, T79P, R80G, S88F
notes: FN3 domain
B13: SEQ ID NO 181 (designed binder)
chain: MLPAPKNLVVSHVTEDSARLSWTAPDAAFDSFPIAYAEPRPDGEAIVLTVPGSERSYDLTGLKPGTEYSVLIHGVKGGLLSSPLSAIFTT
notes: FN3 domain
B14: SEQ ID NO 177 (designed binder)
chain: B1 chain with T79R, P80A, E82G
notes: FN3 domain
B15: SEQ ID NO 205 (designed binder)
chain: MLPAPKNLVVSRVTEDSARLSWTAPDAAFDSFDIDYDEPAWNGEAIVLTVPGSERSYDLTGLKPGTEYRVFIYGVKGGNTSWPLSAIFTT
notes: FN3 domain
B16: SEQ ID NO 198 (designed binder)
chain: B11 chain with I13V, G33L, G39D, D40R, H41K, Y42F, S69D, N79S, Y82F
notes: FN3 domain
B17: SEQ ID NO 193 (designed binder)
chain: B7 chain with L40V, D42N, F69W, P73W, T79E, R80F, S88F
notes: FN3 domain
B18: SEQ ID NO 250 (designed binder)
chain: B1 chain with Q40Y, N69A, T71E, Q73A, T79L, P80L, E82S, F88S
notes: FN3 domain
B19: SEQ ID NO 216 (designed binder)
chain: B13 chain with H12R, R40T, D42S, L79G, S82L
notes: FN3 domain
B20: SEQ ID NO 183 (designed binder)
chain: MLPAPKNLVVSRVTEDSARLSWTAPDAAFDSFLIPYAETSPSGEAIVLTVPGSERSYDLTGLKPGTEYSVLIHGVKGGRPSNPLVAAFTT
notes: FN3 domain
B21: SEQ ID NO 170 (designed binder)
chain: MLPAPKNLVVSRVTEDSARLSWTAPDAAFDSFFIGYPEYPATGEAIVLTVPGSERSYDLTGLKPGTEYFVDINGVKGGSLSYPLSAIFTT
notes: FN3 domain
B22: SEQ ID NO 202 (designed binder)
chain: B2 chain with E35D, Y37L, W39L, M40T, H41Y, T42S, S69Y
notes: FN3 domain
B23: SEQ ID NO 207 (designed binder)
chain: B1 chain with F88S
notes: FN3 domain
B24: SEQ ID NO 246 (designed binder)
chain: B11 chain with I13V, G33T, G39Q, D40N, S69G, N79T, Y82W
notes: FN3 domain
B25: SEQ ID NO 240 (designed binder)
chain: MLPAPKNLVVSRVTEDSARLSWTAPDAAFDSFRIKYLEWWLGGEAIVLTVPGSERSYDLTGLKPGTEYWVDIQGVKGGVLSWPLSAIFTT
notes: FN3 domain
B26: SEQ ID NO 243 (designed binder)
chain: B2 chain with Y33A, E35P, M40V, H41N, T42H, S69P, Y71G, Y73D, Y79G, S82W
notes: FN3 domain
B27: SEQ ID NO 236 (designed binder)
chain: B2 chain with Y33W, W39E, M40L, H41G, T42S, S69R
notes: FN3 domain
B28: SEQ ID NO 185 (designed binder)
chain: B15 chain with D33E, P39L, W41I, N42Y, R69G, F71M, Y73I, N79L, T80P, W82D
notes: FN3 domain
B29: SEQ ID NO 187 (designed binder)
chain: B2 chain with Y33V, Y37F, W39F, M40V, H41G, T42Y, Y71G, Y79K, P80L, S82P
notes: FN3 domain
B30: SEQ ID NO 251 (designed binder)
chain: B1 chain with T79F, E82M, F88V
notes: FN3 domain
B31: SEQ ID NO 192 (designed binder)
chain: B1 chain with P25L, T79F, E82M
notes: FN3 domain
B32: SEQ ID NO 176 (designed binder)
chain: B13 chain with H12R, L71G, L79H, L80D
notes: FN3 domain
B33: SEQ ID NO 210 (designed binder)
chain: MLPAPKNLVVSRVTEDSARLSWTAPDAAFDSFSIVYGERFVNGEAIVLTVPGSERSYDLTGLKPGTEYHVYIDGVKGGDLSWPLSAIFTT
notes: FN3 domain
B34: SEQ ID NO 188 (designed binder)
chain: B20 chain with R79K, P80L, N82L, V85S, A87I
notes: FN3 domain
B35: SEQ ID NO 211 (designed binder)
chain: B1 chain with F33W, G35N, L37Y, P39A, P42D, N69D, T71E, Q73A, P80A, E82L
notes: FN3 domain
B36: SEQ ID NO 178 (designed binder)
chain: B13 chain with H12R, P33D, R40I, D42R, L79R, L80R, S82V
notes: FN3 domain
B37: SEQ ID NO 254 (designed binder)
chain: B13 chain with H12R, P33F, A35P, R40S, D42T, L79H, S82D, F88S
notes: FN3 domain
B38: SEQ ID NO 195 (designed binder)
chain: B15 chain with D33P, D35E, P39I, A40P, W41F, N42W, F71W, Y73H, T80S
notes: FN3 domain
B39: SEQ ID NO 182 (designed binder)
chain: B1 chain with Q40Y, N69V, T71S, E82Q
notes: FN3 domain

Key:
[1] = biological target: T1, recombinant biotinylated CD71 extracellular domain (Sino Biologics) with an N-terminal 6His tag (human, UniProt P02786 89-760, biotinylated (sites not given)); experiment: screening ELISA
T1 construct: extracellular domain; also called hCD71; huCD71
T1 sequence (P02786 other isoform, or with tags, fused parts or gaps): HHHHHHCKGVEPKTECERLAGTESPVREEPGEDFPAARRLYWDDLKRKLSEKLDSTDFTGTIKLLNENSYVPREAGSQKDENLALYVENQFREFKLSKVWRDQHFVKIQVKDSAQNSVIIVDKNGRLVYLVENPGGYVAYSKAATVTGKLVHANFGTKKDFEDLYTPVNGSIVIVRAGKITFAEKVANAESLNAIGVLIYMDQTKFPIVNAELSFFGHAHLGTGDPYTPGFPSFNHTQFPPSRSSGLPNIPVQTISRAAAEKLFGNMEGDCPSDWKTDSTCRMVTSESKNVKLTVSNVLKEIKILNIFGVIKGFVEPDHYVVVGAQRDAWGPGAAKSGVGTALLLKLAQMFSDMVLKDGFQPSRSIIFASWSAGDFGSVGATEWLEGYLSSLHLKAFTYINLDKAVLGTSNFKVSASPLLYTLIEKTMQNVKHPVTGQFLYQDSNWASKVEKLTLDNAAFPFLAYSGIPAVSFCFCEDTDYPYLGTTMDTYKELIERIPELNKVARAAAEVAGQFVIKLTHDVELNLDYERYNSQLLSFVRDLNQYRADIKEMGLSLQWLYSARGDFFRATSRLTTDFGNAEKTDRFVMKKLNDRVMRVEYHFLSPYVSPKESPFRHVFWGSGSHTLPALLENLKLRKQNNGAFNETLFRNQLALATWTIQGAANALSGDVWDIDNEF

[2] = biological target: T1, recombinant biotinylated CD71 …; experiment: screening ELISA, ratio

Row | Binder | hCD71 [1] | hCD71:HSA [2]
1 | B1 | 2.62e+06 | 727
2 | B2 | 3.63e+06 | 1730
3 | B3 | 1.68e+06 | 50
4 | B4 | 2.13e+06 | 1210
5 | B5 | 2.54e+06 | 1060
6 | B6 | 3.55e+06 | 2220
7 | B7 | 1.67e+06 | 32
8 | B8 | 3.31e+06 | 1270
9 | B9 | 2.85e+06 | 1060
10 | B10 | 1.84e+06 | 403
11 | B11 | 2.62e+06 | 903
12 | B12 | 2.68e+06 | 36
13 | B13 | 2.95e+06 | 491
14 | B14 | 2.61e+06 | 1060
15 | B15 | 434000 | 130
16 | B16 | 3.44e+06 | 1130
17 | B17 | 3.87e+06 | 1550
18 | B18 | 1.09e+06 | 58
19 | B19 | 2.19e+06 | 101
20 | B20 | 1.72e+06 | 161

Row | Binder | hCD71 [1] | hCD71:HSA [2]
21 | B21 | 982000 | 58
22 | B22 | 4.5e+06 | 1610
23 | B23 | 1.6e+06 | 62
24 | B24 | 1.57e+06 | 1120
25 | B25 | 3.03e+06 | 1480
26 | B26 | 2.4e+06 | 237
27 | B27 | 3.44e+06 | 2300
28 | B28 | 1.81e+06 | 182
29 | B29 | 3.06e+06 | 422
30 | B30 | 2.74e+06 | 284
31 | B31 | 2.67e+06 | 650
32 | B32 | 1.34e+06 | 129
33 | B33 | 1.16e+06 | 514
34 | B34 | 2.67e+06 | 797
35 | B35 | 1e+06 | 334
36 | B36 | 1.45e+06 | 644
37 | B37 | 3.24e+06 | 36
38 | B38 | 2.53e+06 | 28
39 | B39 | 3.12e+06 | 1060
